Measurements reported in patent publication US20240350630A1.

What was measured:
[1] = biological target: recombinant human BCMA (Acro Biosystems) (human) (UniProt Q02223); assay: SPR, scFv-Fc captured by anti-human IgG Fc on a CM5 chip, BCMA as analyte, global fit
[2] = biological target: recombinant human BCMA (Acro Biosystems) (human) (UniProt Q02223); assay: SPR: scFv-Fc captured on an anti-human IgG Fc CM5 chip (sheet: ligand 20nM), recombinant human BCMA as analyte, 1:1 Binding model, 25 C
[3] = biological target: rBCMA conjugated with AF647 (UniProt Q02223); assay: flow cytometry of primary T cells transduced with the CAR, stained with labelled recombinant BCMA (sheet: rBCMA-APC, APC-A; text: BCMA-AF647 at 1 ug/ml); untransduced T cells (UT) give 0.61 in the same gate

Row | Binder | Kd [1] [nM] | Kd [2] [nM] | koff [2] [s⁻¹] | kon [2] [M⁻¹ s⁻¹] | % BCMA CAR+ cells [3] [%]
1 | 7A8.11 scFv-Fc (Fc fusion, not shown: a dimerising Fc or GST; small tags and cut ends) scFv: EVQLVESGGGLVQPGGSLRLSCEASGFTFSSFWMNWVRQAPGKGLEWVANIKEDGSEKYYVDSVKGRFTISRDNAKNSLYLQMNSLRVEDTAVYYCARALDYYGMDVWGQGTTVTVSSGGGGSGGGGSGGGGSGGGGSYIVMTQTPLSLPVTPGEPASISCRSSQSLLDSDDGNTYLDWYLQKPGQSPQLLIYTLSYRASGVPDRFSGSGSGTDFTLKISRVEAEDVGVYYCMQRIEFPSYTFGQGTKLEIK | 0.44 | 0.355 | 0.00486 | 1.37e+07 | 
2 | 15B2 (protein, part only; not given: hinge, transmembrane and signalling domains, part only) CAR chain, part: EVQLVESGGGLVKPGGSLRLSCAASGFTFRSYSMNWVRQAPGKGLEWVSSISGSSNYIYYADSVKGRFTISRDNAKNSLYLQMNSLRAEDTAVYYCARGGNYYVEYFQYWGQGTLVTVSSGGGGSGGGGSGGGGSGGGGSEIVLTQSPGTLSLSPGERATLSCRASQYISSNYLAWYQQKPGQAPRLLIYGASNRATGIPDRFSGSGSGTDFTLTISRLEPEDFAVYYCQQYGSSPITFGQGTKLEIK |  |  |  |  | 99.6
3 | L15 scFv-Fc (Fc fusion, not shown: a dimerising Fc or GST; small tags and cut ends) scFv: EVQLVESGGGLVKPGGSLRLSCAASGFTFSSYSMNWVRQAPGKGLEWVSSISGQSNYIYYADSVKGRFTISRDNAKNSLYLQMNSLRAEDTAVYYCARGGNYFVEYFQYWGQGTLVTVSSGSGGGGSGGGGSGGGGSGGGGSEIVLTQSPGTLSLSPGERATLSCRASQYISSNNLAWYQQKPGQAPRLLIYGASNRATGIPDRFSGSGSGTDFTLTISRLEPEDFAVYYCQQYADSPITFGQGTKLEIK | 0.37 | 0.371 | 0.000673 | 1.81e+06 | 
